{
  "source": "paper PMC10460364",
  "key": {"[1]": {"test_system": "Cys42", "assay": "UV-vis", "details": "10 °C; poly-buffer: 10 mM sodium acetate, 10 mM sodium phosphate, 10 mM sodium borate, 10 mM sodium citrate, pH 9.4, titrated with 100 mM HCl; Reduced protein (20 µM), referenced to CHP-oxidised protein; folded."}, "[2]": {"test_system": "Cys45", "assay": "UV-vis", "details": "10 °C; poly-buffer: 10 mM sodium acetate, 10 mM sodium phosphate, 10 mM sodium borate, 10 mM sodium citrate, pH 9.4, titrated with 100 mM HCl; Reduced protein (20 µM), referenced to CHP-oxidised protein; folded."}},
  "data": [
    {"substance": "Alkyl hydroperoxide reductase CgAhp (NCgl0877), AhpD-like disulfide oxidoreductase (Corynebacterium glutamicum (strain RES167, derivative of ATCC 13032))", "values": [
      {"measurement": "pKa", "setting": "[1]", "value": "lower than 6"},
      {"measurement": "pKa", "setting": "[2]", "value": 8.39}
    ]}
  ]
}
